From patent publication US20220356229A1 (published 2022)
Positions count from the first letter of the chain named.

B1: antibody 265 (antibody, V domains shown)
VH: EVQLVQSGAEVKKPGATVKVSCKFSGDTFSHYYIHWVQQAPGKGLEWMGLVDPQDGESEYAQKFQGKVTITADTSIDTSYLEVTSLRFDDTAFYFCATRGMSGAFDRWGQGTLVTVSS
VL: DIVMTQSPDSLAVSLGERATINCKSSQSILSTSNNKNYLAWYQQKPGQPPKLLIYWASTRESGVPDRFSGGGSGTDFTLTISSLQAEDVAVYYCQQYYRTAYTTPIYTFGQGTKLEIK
B2: anti-SARS-CoV-2 antibody 412 (antibody, V domains shown)
VH: QVQLVQSGAEVKKPGASVKVSCKASGYTFTSYGISWVRQAPGQGLEWMGWISAYNGNTNYAQKLQGRVTMTTDTSTSTAYMELRSLRSDDTAVYYCARVTVEAIFGVVILPLKNWFDPWGQGTLVTVSS
VL: QSVLTQPPSVSGAPGQRVTISCTGSSSNIGAGYDVHWYQQLPGTAPKLLIYGNSNRPSGVPDRFSGSKSGTSASLAITGLQAEDEADYYCQSYDSSLTLYVFGTGTKVTVL
B3: antibody 434 (antibody, V domains shown)
VH: QVQLVQSGAEVKKPGASVQVSCKASGYTFSDYYIFWVRQAPGQGLEWMGCINPKSGGAIYAQRFQGRVTMTRDTSFNTAYMEMNRLGSDDTAVYYCVTRGPPDIAASGFAWHLDVWGQGTTVTVSS
VL: DIVMTQSPLSLPVTPGEPASISCRSSQSLLSSNGYNYLEWYLQKPGQSPQLLMYLGSNRASGVPDRFSGSGSGTDFTLKINRVEAEDVGVYYCMQALQTPLTFGGGTKVEIK
B4: anti-SARS-CoV-2 antibody 409 (antibody, V domains shown)
VH: QVTLRESGPALVKPTQTLTLTCTFSGFSLSTSGMCVSWIRQPPGKALEWLALIDWDDDKYYSTSLKTRLTISKDTSKNQVVLTMTNMDPVDTATYYCARTTYYYVSGRRAEFDPWGQGTLVTVSS
VL: NFMLTQPHSVSESPGKTVTISCTGSSGSIASNYVQWYQQRPGSAPTTVIYEDNQRPSGVPDRFSGSIDSSSNSASLTISGLKTEDEADYYCQSYDSSNQGVFGGGTKLTVL
B5: antibody 444 (antibody, V domains shown)
VH: QVQLVESGGGLVKPGGSLRLSCAASGFTFSDYYMSWIRQAPGKGLEWVSYISSSGSTIYYADSVKGRFTISRDNAKNSLYLQMNSLRAEDTAVYYCARERKVVVAATRNYYYYYGMDVWGQGTTVTVSS
VL: SYELTQPPSVSVSPGQTARITCSGDALPKQYAYWYQQKPGQAPVLVIYKDSERPSGIPERFSGSSSGTTVTLTISGVQAEDEADYYCQSADSSTWVFGGGTKLTVL
B6: anti-SARS-CoV-2 antibody 404 (antibody, V domains shown)
VH: QVQLVESGGGVVQPGRSLRLSCAASGFTFSSYGMHWVRQAPGKGLEWVAVIWYDGSNKYYADSVKGRFTISRDNSKNTLYLQMNSLRAEDTAVYYCARLAVDISFDGSDGMDVWGQGTTVTVSS
VL: SYELTQPPSVSVSPGQTARITCSGDALPKKYAYWYQQKSGQAPVLVIYEDSKRPSGIPERFSGSSSGTMATLTISGAQVEDEADYYCYSTDSSGKGVFGTGTKVTVL
B7: antibody 264 (antibody, V domains shown)
VH: QVHLVESGGGVVQPGRSLRLSCAASGFTLTSYAMHWVRQAPGKGLEWVALISYDGSVKKYAESVKGRITVSGDNSRNTLHLQINTLRADDTAVYYCVRGGVSGPNSFDLWGQGTMVTVSS
VL: DVVMTQSPLSLPVTLGQPASISCRSSQSLEYSDGNTYVNWFQQRPGQSPRRLIYQVSNRASGVPDRFSGSGSGTDFTLQISRVEAEDVGIYYCMQGTHWPVTFGQGTKVEIK
B8: antibody 263 (antibody, V domains shown)
VH: EVQLVQSGAEVKKPGATVKISCKVSGYTFTDYYMHWVQQAPGKGLEWMGLVDPEDGETIYAEKFQGRVTITADTSTDTAYMELSSLRSDDTAVYYCTTDLAFTIFGGRRGFDPWGQGTLVTVSS
VL: DIQLTQSPSFLSASVGDRVTITCRASQGISSYLAWYQQKPGKAPKLLIYAASTLQSGVPSRFSGSGSGTEFTLTISSLQPEDFATYYCQQLNSYDFGQGTRLEIK
B9: anti-SARS-CoV-2 antibody 423 (antibody, V domains shown)
VH: EVQLVESGGGLIQPGGSLRISCAASGFTVRNNHMSWVRQAPGKGLEWVSVFYRGGTTYYADSVKGRFTISRDDSKNTVDLQMNSLRGEDTAVYYCARGLSVAASGYFDCWGQGTLVTVSS
VL: DIQMTQSPSSVSASVGDTVTITCRANQGISSWLAWYQQVPGKAPELLIYATSTLQSGVPSRFSGSGSGTDFTLTISSLQPEDFATYYCQQANSFPFTFGPGTKVDIK
B10: antibody 276 (antibody, V domains shown)
VH: QVQLQESGPGLVKPSQTLSLTCTVSGDSISSGGYYWSWIRQHPGKGLEWIGYIYYSGSAYYNPSLKSRVTISLDTSKNQFSLKLSSVTAADTAVYYCARDSVAGFSIFDYWGQGTLVTVSS
VL: SSELTQDPAVSVALGQTVRITCQGDSLRSYYASWYQQKPGQAPVRVIYGKNNRPSGIPDRFSGSSSGNTASLTITGAQAEDEADYYCNSWDSSGNHVVFGGGTKLTVL
B11: anti-SARS-CoV-2 antibody 392 (antibody, V domains shown)
VH: QVQLQESGPGLVKPSGTLSLTCAVSGGSISSSNWWSWVRQPPGKGLEWIGEIYHSGSTNYNPSLKSRVTISVDKSKNQFSLKLSSVTAADTAVYYCARGWRATLYGMDVWGQGTTVTVSS
VL: QSALTQPASVSGSPGQSITISCTGTSSDVGSYNLVSWYQQHPGKAPKLMIYEVSKRPSGVSNRFSGSKSGNTASLTISGLQAEDEADYYCCSYAGSSTWVFGGGTKLTVL
B12: anti-SARS-CoV-2 antibody 405 (antibody, V domains shown)
VH: not shown
VL: B11 VL with A8R, I18V, S31G, L34Y, E52D, S61P, N62D, S97Y, T98N, W99V
B13: antibody 273 (antibody, V domains shown)
VH: QVQLVQSGAEVKKPGASVKVSCKVSGYTLTELSMHWVRQAPGKGLEWMGGFDPEDGETIYAQKFQGRVTMTEDTSTDTAYMELSSLRSEDTAVYYCATAPGYYDSSAPQPINWFDPWGQGTLVTVSS
VL: B11 VL with W99L
B14: anti-SARS-CoV-2 antibody 396 (antibody, V domains shown)
VH: QVQLQQWGAGLLKPSETLSLTCAVYGGSFSGYYWSWIRQPPGKGLEWIGEIIHSGSTNYNPSLKSRVTISVDTSKNQFSLKLSSVTAADTAVYYSARRTGLLWFREGSYYFDYWGQGTLVTVSS
VL: DIQMTQSPSSLSASVGDRVTITCRASQGIRNDLGWYQQKPGKAPKRLIYAASSLQSGVPSRFSGSGSGTEFTLTISSLQPEDFATYYCLQHNSYPLTFGGGTKVEIK
B15: anti-SARS-CoV-2 antibody 385 (antibody, V domains shown)
VH: QVQLVESGGGVVQPGRSLRLSCAASGFTFSSYAIHWVRQAPGKGLEWVAVISYDGSNKYYADSVKGRFTISRDNSKNTLYLQMNSLRAEDTAVYYCARPRSGSYWGAFDIWGQGTMVTVSS
VL: QSVLTQPPSVSGAPGQRVTISCTGSSSNIGARYDVHWYQQLPGTAPKLLIYGNSNRPSGVPDRFSGSKSGTSASLAITGLQAEDEADYYCQSYDSSLRGVFGGGTKLTVL
B16: antibody 439 (antibody, V domains shown)
VH: B15 VH with I34M, R100P, S101R, S103G, Y104S, W105Y, G106Y, A107P, I110P, M116L
VL: not shown
B17: anti-SARS-CoV-2 antibody 421 (antibody, V domains shown)
VH: QVQLVESGGGVVQPGRSLRLSCAASGFTFSTYAMHWVRQAPGKGLEWVAVISYDGSNKYYADSVKGRFTISRDNSKNTLYLQMNSLRAEDTAVYYCARGYGSGSYYPLYLYWGQGTLVTVSS
VL: not shown
B18: anti-SARS-CoV-2 antibody 395 (antibody, V domains shown)
VH: QVQLVQSGSELKKPGASVKLSCQASGYTFSNHAMNWVRQAPGQGLEWMGWINTNTGNPTYAQGFTGRFVFSLDTSVGTAYLHISSLKAEDTAFYYCARASARPGVATNLDFWGQGTLVVVSS
VL: DIQMTQSPSSLSASVGDRVTITCRTSQNIDNYLNWYQQKPGKAPNLLIYAASRLHSGVPSRFSGSGSGTDFTLIISSLQPEDLATYYCQQSYSNPLTFGPGTKVDIR
B19: anti-SARS-CoV-2 antibody 422 (antibody, V domains shown)
VH: QVQLVQSGSELKKPGASVKVSCKASGYTFTSYAMNWVRQAPGQGLEWMGWINTNTGNPTYAQGFTGRFVFSLDTSVSTTYLQISSLKAEDTAVYYCARVIGVVTYYYYGMDVWGQGTTVTVSS
VL: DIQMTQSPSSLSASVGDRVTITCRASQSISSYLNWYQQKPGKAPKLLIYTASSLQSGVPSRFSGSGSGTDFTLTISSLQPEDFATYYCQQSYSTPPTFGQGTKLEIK
B20: anti-SARS-CoV-2 antibody 407 (antibody, V domains shown)
VH: QVQLVESGGGVVQPGRSLRLSCAASGFTFSSYGMHWVRQAPGKGLEWVAVISYDGSNKYYADSVKGRFTISRDNSKNTLYLQMNSLRAEDTAVYYCAKCGWDYDFWVGQGYGMDVWGQGTTVTVSS
VL: not shown
B21: antibody 281 (antibody, V domains shown)
VH: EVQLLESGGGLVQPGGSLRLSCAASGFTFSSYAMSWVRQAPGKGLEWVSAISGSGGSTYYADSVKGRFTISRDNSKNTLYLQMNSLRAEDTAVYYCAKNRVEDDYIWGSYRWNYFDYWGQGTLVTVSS
VL: QSALTQPASVSGSPGQSITISCTGTSSDVGSYNLVSWYQQHPGKAPKLMIYEVSKRPSGVSNRFSGSKSGNTASLTISGLQAEDEADYYCCSYAGSSTHVVFGGGTKLTVL
B22: antibody 443 (antibody, V domains shown)
VH: QMRLEESGPGLVKPSETLSLTCTVAGGSITSSDYFWGWLRQSPGKGLEWIASTYHGGSIQYHPALKSRVTISVDASKNQISLRLSSVTAADTAVYYCARDRGDDGPMGTYYFDHWGQGALVTVSS
VL: QSVLTQPPSVSGAPGQSVTISCAGSSSNIGAGHDVHWYQQIPGTAPKLLICGNTNRPSGVPERFSGSRSGTSASLAITGLQAEDEAVYYCQSYDPSHVFFGTGTKLTVL
B23: anti-SARS-CoV-2 antibody 431 (antibody, V domains shown)
VH: QVQLVESGGGVVQPGRSLRLSCAASGFTFSSYAMHWVRQAPGKGLEWLAVISYDGSNKYYADSVKGRFTISRDNSKNTLYLQMNSLRAEDTAVYYCARSFRGGYYYGMDVWGQGTTVTVSS
VL: DIQLTQSPSFLSASVGDRVTITCRASQGISSYLAWYQQKPGKAPKLLIYAASTLQSGVPSRFSGSGSGTEFTLTISSLQPEDFATYYCQQLNSYPLFTFGPGTKVDIK

How the values were obtained:
[1] = biological target: SARS-CoV-2 Spike (S) protein, wild type, full length (SARS-CoV-2, UniProt P0DTC2 14-1208)
[2] = biological target: SARS-CoV Spike protein (full length Spike, coupled to optically encoded beads) (SARS-CoV, UniProt P59594 14-1190)
[3] = biological target: SARS-CoV Spike protein (SARS-CoV, UniProt P59594 14-1190)

Binder | median fluorescence, fold over isotype [2] [fold over isotype] | other results
B1 |  | bead binding signal (fold over isotype) [1]: 1280 fold over isotype
B2 | 1.09 | 
B3 |  | bead binding signal (fold over isotype control) [3]: 1.36
B4 | 1.03 | 
B5 |  | bead binding signal (fold over isotype control) [3]: 1
B6 | 1.04 | 
B7 |  | bead binding signal (fold over isotype) [1]: 598 fold over isotype
B8 |  | bead binding signal (fold over isotype) [1]: 722 fold over isotype
B9 | 1.23 | 
B10 |  | bead binding signal (fold over isotype) [1]: 748 fold over isotype
B11 | 1.08 | 
B12 | 80.9 | 
B13 |  | bead binding signal (fold over isotype) [1]: 924 fold over isotype
B14 | 1.36 | 
B15 | 59.6 | 
B16 |  | bead binding signal (fold over isotype control) [3]: 1.23
B17 | 1.19 | 
B18 | 1.16 | 
B19 | 1.19 | 
B20 | 1.07 | 
B21 |  | bead binding signal (fold over isotype) [1]: 570 fold over isotype
B22 |  | bead binding signal (fold over isotype control) [3]: 1.03
B23 | 49.9 | 
